Assay results as given in patent publication US20210386866A1 (DEVELOPMENT CENTER FOR BIOTECHNOLOGY, published 2021).

Tests used:
[1] = target: T1, human mesothelin recombinant protein (human, UniProt Q13421 296-580, limits assumed); assay: ELISA, plate coated with mesothelin protein, serial dilutions of antibody, non-linear regression
T1 construct: also called mesothelin protein; MSLN
Protocol: (§1) ELISA plates were coated with 1˜2 μg/100 μl per well of mesothelin protein. Wells were rinsed for 3 times with PBS and blocked with 300 μl 5% MPBS per well for 2 hr at 37° C. After washing with PBS, wells were incubated with serial diluted mesothelin antibodies in 5% MPBS for 1.5 hours at 37° C. The plates were washed and goat polyclonal anti-human IgG-HRP antibody (1:10,000) (Jackson ImmunoResearch) was added into each well. The absorbance was measured as described above and the binding affinities of antibodies were calculated by non-linear regression with Prism software (GraphPad).

[2] = target: T1, human mesothelin recombinant protein; assay: ELISA, plate coated with mesothelin at 1 ug/mL, detection with anti-human Kappa light chains
Protocol: (§2) 100 μL of mesothelin in a coating buffer at a concentration of 1 μg/mL was added to and coated on each well of a plate. The plates were sealed and incubated at 4° C. overnight. The wells were aspirated and washed with 300 μL of PBST (0.05% Tween 20) for 3 times. The wells were blocked by adding 200 μL of PBS-5% skim milk and incubated at 37° C. for 1 hour. The wells were aspirated and washed with 300 μL/well of PBST (0.05% Tween 20) for 3 times. 100 μL of 400 ng ADC sample diluted with PBS was added to each well, and the plates were then incubated at 37° C. for 1 hour. The wells were aspirated and washed with 300 μL of PBST (0.05% Tween 20) for 3 times. 50 μl of anti-human Kappa light chains (1:5000) was added to each well, and the plates were incubated at 37° C. for 1 hour. The wells were aspirated and washed with 300 μL/well of PBST (0.05% Tween 20) for 3 times. 100 μl of TMB was added to each well, and the plates were incubated at room temperature for 15 minutes. The color development was stopped by adding 100 μL of 1N HCl.

[3] = target: T1, human mesothelin recombinant protein; assay: ELISA, plate coated with mesothelin 1 ug/mL, detection with anti-human kappa light chain antibody
Protocol: as §2

[4] = target: T1, human mesothelin recombinant protein; assay: SPR, Biacore T100, ADC captured on anti-human IgG-Fc CM5 chip, human mesothelin recombinant protein as analyte (3.7 to 100 nM), 1:1 Langmuir model
Protocol: (§3) The kinetic constant of the anti-mesothelin ADCs interaction against mesothelin was determined by surface plasma resonance (Biacore® T100, Biacore, Inc., Piscataway, N.J.). The flow cell of the CM5 wafer was fixed with approximately 10,000 reaction units (RU) of anti-human IgG-Fc (Biacore®) in 10 mM glycine pH 5.0 at 10 μL/min for 600 seconds. 10 μg/mL of anti-mesothelin antibody and anti-mesothelin ADCs diluted in TBS at 10 μl/min were captured on CM5 chips. Four concentrations (from 3.7 to 100 nM) of human mesothelin recombinant protein and zero concentration (flow buffer) in 100 μl/min binding were recorded in PBS containing 1 mM CaCl₂ for 3 minutes. The dissociation of the complex was measured for 10 minutes. The water surface was regenerated by injecting 3 M MgCl₂ and 3 mM EGTA at 10 μl/min for 60 seconds. The curve obtained after subtracting the reference and buffer signals was taken into the 1:1 Langmuir binding model using the Biacore® T100 evaluation software (Biacore®).

[5] = target: T1, human mesothelin recombinant protein; assay: SPR, Biacore T100, antibody captured on anti-human IgG-Fc CM5 chip, human mesothelin recombinant protein as analyte (3.7 to 100 nM), 1:1 Langmuir model
Protocol: as §3

[6] = target: T1, human mesothelin recombinant protein; assay: ELISA, plate coated with mesothelin protein, serial dilutions of antibody, detection with anti-human IgG-HRP
Protocol: as §1

[7] = target: T1, human mesothelin recombinant protein; assay: SPR, BIAcore T200, mesothelin coupled to CM5 chip, antibody injected (0.3125 nM to 40 nM), 25 degree C, 1:1 Langmuir model
Protocol: Carboxymethylated dextran biosensor chips (CM5, Cytiva Inc.) were activated with N-ethyl-N′-(3-dimethylaminopropyl)-carbodiimide hydrochloride (EDC) and N-hydroxysuccinimide (NHS) according to the supplier's instructions. Mesothelin protein was diluted with 10 mM sodium acetate, pH 4.0, into 5 μg/ml before injection at a flow rate of 10 μL/minute to achieve approximately 1500 response units (RU) of coupled protein followed by the injection of 1M ethanolamine to block unreacted groups. For kinetics measurements, two-fold serial dilutions of anti-mesothelin mAb (0.3125 nM to 40 nM) were injected in HBS-EP+ Biacore running buffer provided by the manufacturer (Cytiva Inc.) at 25 degree C. at a flow rate of 30 μL/min, and binding responses on the mesothelin protein were corrected by subtraction of responses on a blank flow cell. Association rates (kon or ka) and dissociation rates (koff or kd) were calculated using a simple one-to-one Langmuir binding model with separate fittings of kon and koff was used. (Cytiva.™. Biacore Insight Evaluation Software).

T1 sequence (Q13421 other isoform, or with tags, fused parts or gaps limits assumed): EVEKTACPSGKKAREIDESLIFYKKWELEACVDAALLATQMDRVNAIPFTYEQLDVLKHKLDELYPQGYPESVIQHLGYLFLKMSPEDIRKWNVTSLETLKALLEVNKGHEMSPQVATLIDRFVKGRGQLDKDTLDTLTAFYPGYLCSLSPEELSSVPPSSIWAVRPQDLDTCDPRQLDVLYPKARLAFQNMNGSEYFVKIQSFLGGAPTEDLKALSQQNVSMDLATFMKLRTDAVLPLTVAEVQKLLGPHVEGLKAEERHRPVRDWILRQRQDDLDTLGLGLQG

B1: humanized SS1 4D5 (HdSS1) (antibody, V domains shown)
VH: EVQLVESGGGLVQPGGSLRLSCAASGYSFTGYTMNWVRQAPGKGLEWVALITPYNGASSYNQKFRGRFTISRDDSKNTLYLQMNSLRAEDTAVYYCARGGYDGRGFDYWGQGTLVTVSS
VL: DIQMTQSPSSLSASVGDRVTITCSASSSVSYMHWYQQKPGKAPKLLIYDTSKLASGVPSRFSGSGSGTDFTLTISSLQPEDFATYYCQQWSKHPLTFGQGTKVEIKR
notes: also called HdSS1 HH; HdSS1 (HH)
B1 was tested, and the Kd [1] was 26.1 nM.

B2: DCBPR2002-2(DBCO-vc-seco-DUBA)-2(DBCO-s-DM1) (other)
VH: QVQLVQSGAEVKKPGASVKVSCKASGYSFTGYTMNWVRQAPGQGLEWMGLITPYNGASSYNQKFRGRVTMTRDTSISTAYMELSRLRSDDTAVYYCARGGYDGRGFDYWGQGTLVTVSS
VL: EIVLTQSPATLSLSPGERATLSCSASSSVSYMHWYQQKPGQAPRLLIYDTSKLASGIPARFSGSGSGTDFTLTISSLEPEDFAVYYCQQWSKHPLTFGQGTKVEIKR
modifications: DBCO-vc-seco DUBA (2 per antibody) and DBCO-S-DM1 (2 per antibody) linked through GlcNAz to the tri-mannosyl N-glycan of the heavy chain constant region (DAR ~4)
In the case of B2, the Kd [2] is reported as 0.0732 nM and the “EC50 (read off the curve)” value [3] is reported as roughly 0.07 nM.

B3: DCBPR2002-4(DBCO-vc-MMAE) (other)
VH: B2 VH
VL: B2 VL
modifications: DBCO-vc-MMAE linked through GlcNAz to the tri-mannosyl N-glycan of the heavy chain constant region; 4 per antibody (DAR 3.89 by LC-MS)
B3 gave a Kd [2] of 0.133 nM and a Kd [4] of 0.0217 nM.

B4: DCBPR2002-4(DBCO-vc-seco-DUBA) (other)
VH: B2 VH
VL: B2 VL
modifications: DBCO-vc-seco DUBA linked through GlcNAz to the tri-mannosyl N-glycan of the heavy chain constant region; 4 per antibody (DAR ~4)
B4 was tested, and the Kd [2] was 0.0975 nM.

B5: DCBPR2002-2(DBCO-vc-MMAE)-2(DBCO-vc-seco-DUBA) (other)
VH: B2 VH
VL: B2 VL
modifications: DBCO-vc-MMAE (2 per antibody) and DBCO-vc-seco DUBA (2 per antibody) linked through GlcNAz to the tri-mannosyl N-glycan of the heavy chain constant region (DAR ~4)
B5 showed a Kd [2] of 0.158 nM and a Kd [4] of 0.0256 nM.

B6: DCBPR2002-2(DBCO-vc-MMAE)-2(DBCO-s-DM1) (other)
VH: B2 VH
VL: B2 VL
modifications: DBCO-vc-MMAE (2 per antibody) and DBCO-S-DM1 (2 per antibody) linked through GlcNAz to the tri-mannosyl N-glycan of the heavy chain constant region (DAR ~4)
B6 gave a Kd [2] of 0.136 nM.

B7: humanized antibody HuSS1 (DCBPR2002) (antibody, V domains shown)
VH: B2 VH
VL: B2 VL
notes: also called HuSS1-HH; HuSS1 (HH)
B7 was tested, and the Kd [5] was 0.0169 nM, the “EC50 (read off the curve)” value [6] was roughly 0.05 nM and the Kd [1] was 0.0499 nM. For the same binder, the Kd [2] was 0.0924 nM, the “EC50 (read off the curve)” value [3] was roughly 0.09 nM and the Kd [7] was 0.0025 nM. For the same binder, the koff [7] was 1.12e-05 s⁻¹ and the kon [7] was 4.49e+06 M⁻¹ s⁻¹.

B8: DCBPR2002-4(DBCO-s-DM1) (other)
VH: B2 VH
VL: B2 VL
modifications: DBCO-S-DM1 linked through GlcNAz to the tri-mannosyl N-glycan of the heavy chain constant region; 4 per antibody (DAR ~4)
Binder B8 has a Kd [2] of 0.145 nM.
